Laboratory results taken from the supplement of paper PMC9732359.
± gives the uncertainty stated by the source.

Assay: protein stability index of a GFP-peptide fusion (yeast GPS) (PSI 1-4); higher = more stable; sorted into four equal gates, so the index is relative within each strain
Conditions: san1∆
How it was run: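 Sequencing reads from sorted gates were used to score each peptide. The library consisted of tiled 17-residue yeast protein peptides fused downstream of GFP on a Cherry-expressing plasmid, pooled and carried in yeast. Mid-log cultures in leucine-free medium were split into four equal gates by GFP/Cherry ratio, and each gate's plasmids were PCR-amplified and Illumina-sequenced. The protein stability index adds up, over all gates, the read frequency multiplied by the gate number.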

| Sequence | protein stability index |
| --- | --- |
| AAASLPSKKLKTEDGFV [RPC82] | 2.84 ± 0.091 |
| AACEKLLPPIKIELIKN [RPN12] | 2.44 ± 0.098 |
| AADTSIVEQDKSMELFY [YJL039C/NUP192] | 2.63 ± 0.084 |
| AAESKKYRQTKLSKEER [RPL5] | 3.05 ± 0.22 |
| AAPAATSAASGDAAPAE [RPP0] | 1.6 ± 0.1 |
| AAPLLALLRENQDSVKT [RPN2] | 3 ± 0.15 |
| AARHRARFRSIHILKVA [RPL20A] | 1.22 ± 0.11 |
| AASFKKLYKTPIPIPAF [PRE10] | 2.75 ± 0.079 |
| AASSQVSIVKLDTQLIT [SNF12] | 1.64 ± 0.16 |
| AASVIGMLVALGRLSVR [RPC82] | 1.11 ± 0.23 |
| AAVIMRCKIYFFYLRIS [PCI8] | 1.15 ± 0.11 |
| AAVVKTSSRQTVFLPMV [RPT5] | 2.97 ± 0.051 |
| ADDADIEMKDVSSKPSK [MED1] | 2.95 ± 0.065 |
| ADDHASVQINVAKVDEE [RPS21A] | 3.13 ± 0.045 |
| ADEMGLGKTIQTISLLT [SNF2] | 2.46 ± 0.08 |
| ADKIVDEFPELKEPVED [NUT2] | 3.23 ± 0.27 |
| ADKRGVLTGGYLDQHKR [SMC3] | 2.72 ± 0.074 |
| ADKSLPSSMATLLKNLR [YJR042W/NUP85] | 2.87 ± 0.054 |
| ADLERFFLSIYFFYASR [YJL039C/NUP192] | 1.22 ± 0.12 |
| ADLKKGKDLSPAINYTK [QCR2] | 3.32 ± 0.086 |

| Sequence | protein stability index |
| --- | --- |
| ADLRPLQIKSIREIDVT [RPS7B] | 2.53 ± 0.23 |
| AEKKIPLVIRRYLPDGS [RPO26] | 3.45 ± 0.066 |
| AELKLAGEFGLKNKREI [RPS9B] | 3.2 ± 0.18 |
| AETIILSSAGKNSSVSS [SRB5] | 2.06 ± 0.083 |
| AEVNGGDDEATEIISTL [BRR2] | 3.43 ± 0.095 |
| AEWSLVRIYSGLLKRGD [SNU114] | 3.26 ± 0.079 |
| AEYAQLLAKRLSERKAE [RPS6A] | 2.16 ± 0.082 |
| AFADRLGQYVQAHTLYN [PRE10] | 1.74 ± 0.12 |
| AFAFCIPVYCFSHPAHQ [YCG1] | 1.76 ± 0.059 |
| AFGFVDRTLPHFSKDDY [RPO21] | 2.85 ± 0.052 |
| AFGGLNFGGGNNTTPSS [YJL041W/NSP1] | 1.46 ± 0.087 |
| AFIFGLQDELKELQLEK [SMC3] | 3.11 ± 0.12 |
| AFLSFLAYRNYWTQYLG [YJL039C/NUP192] | 1.26 ± 0.11 |
| AFSSVEHIIRDVHNGYI [COB] | 3.37 ± 0.24 |
| AFVEFGASVIAGGQRIV [SWP82] | 2.02 ± 0.1 |
| AGALNLASPEVKVHMDS [DIS3] | 2.99 ± 0.07 |
| AGGGESDSALILMYKGF [UBP6] | 3.26 ± 0.12 |
| AGKFPTPVSHNDDLYGK [RPL1A] | 2.21 ± 0.057 |
| AGKSLVSKSEPKFFLGE [QCR2] | 3.08 ± 0.054 |

Same assay, conditions: ubr1∆

| Sequence | protein stability index |
| --- | --- |
| AAASLPSKKLKTEDGFV [RPC82] | 3.04 ± 0.065 |
| AACEKLLPPIKIELIKN [RPN12] | 1.99 ± 0.072 |
| AADTSIVEQDKSMELFY [YJL039C/NUP192] | 2.73 ± 0.2 |
| AAESKKYRQTKLSKEER [RPL5] | 3.06 ± 0.26 |
| AAPAATSAASGDAAPAE [RPP0] | 2.42 ± 0.063 |
| AAPLLALLRENQDSVKT [RPN2] | 2.6 ± 0.11 |
| AARHRARFRSIHILKVA [RPL20A] | 1.1 ± 0.059 |
| AASFKKLYKTPIPIPAF [PRE10] | 3 ± 0.12 |
| AASSQVSIVKLDTQLIT [SNF12] | 2.02 ± 0.11 |
| AASVIGMLVALGRLSVR [RPC82] | 1.24 ± 0.097 |
| AAVIMRCKIYFFYLRIS [PCI8] | 1.09 ± 0.088 |
| AAVVKTSSRQTVFLPMV [RPT5] | 2.87 ± 0.061 |
| ADDADIEMKDVSSKPSK [MED1] | 3.26 ± 0.066 |
| ADDHASVQINVAKVDEE [RPS21A] | 3.26 ± 0.04 |
| ADEMGLGKTIQTISLLT [SNF2] | 2.41 ± 0.075 |
| ADKIVDEFPELKEPVED [NUT2] | 3.63 ± 0.14 |
| ADKRGVLTGGYLDQHKR [SMC3] | 2.94 ± 0.052 |
| ADKSLPSSMATLLKNLR [YJR042W/NUP85] | 2.86 ± 0.057 |
| ADLERFFLSIYFFYASR [YJL039C/NUP192] | 1.55 ± 0.072 |
| ADLKKGKDLSPAINYTK [QCR2] | 3.23 ± 0.065 |

| Sequence | protein stability index |
| --- | --- |
| ADLRPLQIKSIREIDVT [RPS7B] | 2.88 ± 0.1 |
| AELKLAGEFGLKNKREI [RPS9B] | 3.21 ± 0.12 |
| AEQFKHQHGDKVDIFEI [FAS2] | 3.06 ± 0.21 |
| AETIILSSAGKNSSVSS [SRB5] | 1.89 ± 0.075 |
| AEVNGGDDEATEIISTL [BRR2] | 3.11 ± 0.21 |
| AEWSLVRIYSGLLKRGD [SNU114] | 3.29 ± 0.12 |
| AEYAQLLAKRLSERKAE [RPS6A] | 2.28 ± 0.038 |
| AFADRLGQYVQAHTLYN [PRE10] | 2.03 ± 0.11 |
| AFAFCIPVYCFSHPAHQ [YCG1] | 1.81 ± 0.045 |
| AFGFVDRTLPHFSKDDY [RPO21] | 3.16 ± 0.035 |
| AFGGLNFGGGNNTTPSS [YJL041W/NSP1] | 1.21 ± 0.13 |
| AFIFGLQDELKELQLEK [SMC3] | 3.54 ± 0.19 |
| AFLSFLAYRNYWTQYLG [YJL039C/NUP192] | 1.26 ± 0.068 |
| AFSSVEHIIRDVHNGYI [COB] | 2.99 ± 0.16 |
| AFVEFGASVIAGGQRIV [SWP82] | 2.07 ± 0.085 |
| AGAGEANGTVVSFIKNG [MTR3] | 2.21 ± 0.11 |
| AGALNLASPEVKVHMDS [DIS3] | 3.04 ± 0.052 |
| AGGGESDSALILMYKGF [UBP6] | 3.35 ± 0.063 |
| AGKFPTPVSHNDDLYGK [RPL1A] | 2.45 ± 0.043 |
| AGKSLVSKSEPKFFLGE [QCR2] | 3.32 ± 0.047 |
